Measured values published in the DeepSol protein solubility set.

Test: soluble on expression in E. coli; label from the status in PepcDB or PDB records
In the case of “MSLAKLRPTKTFKPKPPAGLPDRETLLAFLRDAGETGKADIARHFGLKGADRRALREMIRELEAQGALAKRGRKGFAEAGSLPPVGVADVVERDGDGELYVKLTKSDDDVPNVRLAPGKGEAAAGAPGLGDRLLVRFERLETGEFEAKLIKKLGQSAHKILGVIRKHRREVRVEPVDRKSKESLVLDPSVAHDFKEGDLVLAQVGTHGGRYGPKPGKVLEVVGTENDPRAASLIAIHSHGIPTGFSEAAEAEAKTAVEPTLAGREDLRDLPFVTIDPVDARDHDDAVYAHPDEDETNKGGFVVWVAIADVAAYVRPGSALDRDAREKGNSVYFPDRVEPMLPETLSNGLCSLRESENRATLAVRMVFDKSGRKKGHRFVRGLMRSAAKLSYEQAQAAIDGQPDDKAGPLLDPILKPLWDAYRTMKIGRDARSPLAIESDERRIIIKGGEITSITKRASLEAHKLIEEMMVQANVCAAESLEAKRSPLIYRVHDTPSLEKVQNLADFLQTLEIRWSKGEAPQTARFNKLLEETRESPNAAIINEVVLRTQMQAHYSADNIGHFGLNLAKYAHFTSPIRRYADLIVHRGLIRALGLGTDGLTDQDIAQIKDTAEVITHAERRAMAAERDATDRYIAAFLADRVGATFEGRITGVTRFGLFIKLADTGADGLVPVSSLGQEFFVHDDKMHALVGERTGKRWPLGLSVEVKLVEATPVTGGLLFEMLSEPLPPDPKMPRPRLGARRQAAVKPRGGLPKGVRRGKRREGHHHHHH”, the “soluble on expression in E. coli” value is reported as “soluble”.
For “MTEQERLELEAAAFRRLVAHLDSRKDVQNIDLMNLSGFCRNCLSKWYKAAADEKHIDITLDDAREVVYGMPYSEWKANYQKEASAEQQAAFVKESKHD”, the “soluble on expression in E. coli” value was “soluble”.
With “MGSDKIHHHHHHMALDQDGIQKVQKISTGIERLDDLFYGGFDRNDNVVVRGNNFSQKRSFIYSFIKKSANSGIGVVLVDFDFPSEGIMADLVRSGTNTDMVHILDGFAKPFQISAPSNTEMLDDPGNIPSVLKQITSTVQKMDEYVFVMLSATRYLIAKDQNTDRFFVQLINMNRKRSLVSIYAVDDFVPEDRSEWFAYLMDSALHFRNAGARAYLRVLTLKRIRTKEWVRIYPEEGTFTLGSFNVERIK” the “soluble on expression in E. coli” value was “not soluble”.
In the case of “IAQQTEETVVEVETVTGFGANDAILDIRSIDEQEDKPLKVEGVEVVSLPFYKLSTKFGDLDQSKTWLLWCERGVMSRLQALYLREQGFSNVKVYR”, the “soluble on expression in E. coli” value is reported as “not soluble”.
In the case of “METVQDCENKLPPSLKSRLCEIRRYEIIEGPEMDKHIHCVMRALDFVYEDGRGDYHKLYDPLNIIELDKRHDVNLEKCIGECVQVPTSERAHVFYKCLLKSTTGRTFKKVFDLMELKKAGKVPQHQRYTAEFVQIMKDYDKALNC”, the “soluble on expression in E. coli” value is reported as “soluble”.
In the case of “MKQSTIALALLPLLFTPVTKAREVQLQQSGPELVKPGASVKMSCKASGYTFTSYVMHWVKQKPGQGLEWIGYINPYNDGTKYNEKFKGKATLTSDKSSSTAYMELSSLTSEDSAVYYCARGAYKRGYAMDYWGQGTSVTVSSRGGGGSGGGGSGGGGSDLVMSQSPSSLAVSAGEKVTMSCKSSQSLFNSRTRKNYLAWYQQKPGQSPKLLIYWASTRESGVPDRFTGSGSGTDFTLTISSVQAEDLAVYYCKQSYYHMYTFGSGTKLEIKHHHHHGLVPRGSGDPKADNK”, the “soluble on expression in E. coli” value is reported as “soluble”.
In the case of “MSVDYPRDLIGYGSNPPHPHWPGKARIALSFVLNYEEGGERNILHGDKESEAFLSEMVSAQPLQGERNMSMESLYEYGSRAGVWRILKLFKAFDIPLTIFAVAMAAQRHPDVIRAMVAAGHEICSHGYRWIDYQYMDEAQEREHMLEAIRILTELTGERPLGWYTGRTGPNTRRLVMEEGGFLYDCDTYDDDLPYWEPNNPTGKPHLVIPYTLDTNDMRFTQVQGFNKGDDFFEYLKDAFDVLYAEGAEAPKMLSIGLHCRLIGRPARLAALQRFIEYAKSHEQVWFTRRVDIARHWHATHPYTGAAK”, the “soluble on expression in E. coli” value is reported as “soluble”.
For “MGSDKIHHHHHHMLLEKLNWRYAAKKMDPAKVVSEDKVERIVEAARLAPTSSGLQPFEIIVVTNAEVREKIKAIGWNQSPITDGSHLLVFAAWDNYTAERINHMFDLVNEVRGFRNEGWENYRQMLLSAYPQRDPETNFEHAARQAYIAFGLALAQAAFEGVDATPMEGFDPKALDEILGLRERGLRSVTIAPLGYRQVEGDWLVNLQKVRRPRDQFVTEVK”, the “soluble on expression in E. coli” value was “not soluble”.
For “MKKLTFEIRSPAHQQNAIHAVQQILPDPTKPIVVTIQERNRSLDQNRKLWACLGDVSRQVEWHGRWLDAESWKCVFTAALKQQDVVPNLAGNGFVVIGQSTSRMRVGEFAELLELIQAFGTERGVKWSDEARLALEWKARWGDRAA”, the “soluble on expression in E. coli” value was “soluble”.
With “MGSDKIHHHHHHMQKTPALLSDIGNNEDASVYQISPDLALVQTLDFITPIVDSAYHFGAIAAANALSDVFAMGAEVINALNIVGFDTCNHDLNILKELLEGANDKVKECNALVVGGHTIESTELFFGLSVTGKVHPSKFIANNTSKIGDCIILTKPLGTGILSTALKAQMLNQKHLDIMLKNMIELNYKASQIALKFHPSAMSDVTGFGLLGHLKEMLNKNISFEIFESELPFLDGVKEYFNMGLIPAGAYKNLEFIKELTPDLNEEKLLLCDPQTSGGLLISISEKDSLECLKKLEDENIQAKIIAKVVNKQENDIIIS” the “soluble on expression in E. coli” value was “not soluble”.
For “MGSDKIHHHHHHMSLKQMECVVAVAKLRSFTKAAAKLKVAQPSLSQSIQAVEKQVGVPLFDRSTFPITLTHAGEVYVAKANAIIELYKDLNTQMCDVIGSDKGPLRLGFSQTGYQFIPTALAKFCKRFPCADLRVVQVFSTLKLEKMLSEGDIDIATLVLPLSSPEIDYKIIKENQAFLALPITHPLSQKAIREAQDSPSVSLEELKEERFILPKSTQRSRPIFDEIFRKAGFEPKIFCETETFDIANAIVASGVGACFTLPQFIKEDKQDKVVLFHVDEPLLARTVVLAYRKDKHLSKMACEFLTIARSL”, the “soluble on expression in E. coli” value was “not soluble”.
In the case of “MGSDKIHHHHHHMPEPELMDDPLQARAYAEADFSCGDEALIQRLQEYLISLCKIPSPGSMIVDLGCGPGNICERLQRLWPEVMVLGIDGAQAMLDHALQRQKAMAAELKRLTYRCSNLSSLVNQCVDLKCSAALVVSNSLLHHLHDPNLLWQVTKYLAAPGAFVFHRDLRRPLSTKHAIALQQKHMQEAPSILIRDYLASLHAAFTLEEVQSQLVHAGLDHLHVIEVEDRYLDVFGTI”, the “soluble on expression in E. coli” value is reported as “not soluble”.
For “MSNPYPKQEVTLMLHTANPVIKHKAGLLNLAEELSNVSKACKIMGVSRDTFYRYRELVAEGGVDAQINRSRRAPNLKNRTDEATEQAVVDYAVAFPTHGQHRASNELRKQGVFISDSGVRSVWLLHNLENLKRRYLEHHHHHH”, the “soluble on expression in E. coli” value was “not soluble”.
For “SSAESASQIPKGQVDLLDFIDWSGVECLNQSSSHSLPNALKQGYREDEGLNLESDADEQLLIYIPFNQVIKLHSFAIKGPEEEGPKTVKFFSNKEHMCFSNVNDFPPSDTAELTEENLKGKPVVLKYVKFQNVRSLTIFIEANQSGSEVTKVQKIALYGST”, the “soluble on expression in E. coli” value was “soluble”.
With “MGSDKIHHHHHHMSSNSRVYGIVPSKRLGRSLGVSPIPFKTCTYSCVYCQLGRTTNFTVKRQTFFPLKVFEEELKGFVKRHRYDFDVVSIVGEGEPTLYTPLDALIDLCKSITGKPVVLITNGSLFWSEKVRKEAKLSDIIMPTLSAWDEKSFRTIHKPHKNLSFQKVFEGLKKFRREYSGEIWLEVMLVKGLNDFALEELKEKISQVESDRVYVNVPVRPPAEGWVEPPDEETIEKAKELFNAASIETPAASRFIAAGEGIDAVLNVIKRHPMNEEEVRDLLTSQKIDPKPVLEKLRSCKNVKIIEYSGRRYYRYTTAE” the “soluble on expression in E. coli” value was “not soluble”.
With “PQPSRPRKGSLGFGPRKRSTSETPRFNSWPSDDGQPGVQGFAGYKAGMTHVVLVNDEPNSPREGMEETVPVTVIETPPMRAVALRAYEDTPYGQRPLTEVWTDEFHSELDRTLDVPEDHDPDAAEEQIRDAHEAGDLGDLRLITHTVPDAVPSVPKKKPDVMETRVGGGSVSDRLDHALDIVEDGGEHAMNDIFRAGEYADVAGVTKGKGTQGPVKRWGVQKRKGKHARQGWRRRIGNLGPWNPSRVRSTVPQQGQTGYHQRTELNKRLIDIGEGDEPTVDGGFVNYGEVDGPYTLVKGSVPGPDKRLVRFRPAVRPNDQPRLDPEVRYVSNESNQG” the “soluble on expression in E. coli” value was “soluble”.
For “MSLGPYYINTHFLYGSEEKANKLLEFIDKEKENILKCPDRILEETMKNYQSDPIYRGLIDEMCDFIKNNIDVNEVDYISGGERRDWFFSPIIAKLLNKPHITIYKDLTTVVSSDGKTEELKELNGESVLHIADLITEASSYERAWIPAIKNNGGRIKWSVVVVDRKQGGAELLKSYDIKSFSMVDIDIGLFKRVLDMGLIDRGQFEMIEQYILDPKESMAKFLRKNEGHHHHHH”, the “soluble on expression in E. coli” value was “not soluble”.
In the case of “MSLHLALLMRGGDPHCILDFGAGNGELCKLIALQFCYEPTPSLMAEAKENLADLPQISFCSDLEKISDGSVELIFCLEVFEHLPEKETKDALGQFDRLLTDNGNAVIGVPVEIGIPALYKGIFRMSRRFNTFDASIKNVLLAALSFPPKDRPVSEITPGFAFHHEHMGFDYRKLQALLHAQFGLQQVTTSPFSIFGPWLNPEVNFLIQKANPAVNADAAR”, the “soluble on expression in E. coli” value is reported as “not soluble”.
For “MRVCLLASGSKGNSLFIETGESRILIDAGLSARELVRRLSLIGVDAAQLDALFISHEHTDHVRGAGVLARKYRIPVHVSYPTHREISGQIHGVYVTEFESGYSFTFRDLLVDPFRITHDACDPVGFTVESREGKVGIATDLGTATRLVADKLAGCRALVVESNHDEGMLMDGPYPWHLKQRIKSRHGHLSNNDTAALLAEVINPGLEGLFLAHLSEVNNDPVMARQVTASFLAGQNICSPRLVVGDQYRPSELLNILEHHHHHH”, the “soluble on expression in E. coli” value was “not soluble”.
In the case of “MPKIPITLITGFLGSGKTSFLSEYLNQTDHQGVALIINEIGQAALDQRILSVQYCGEKMLYLNAGCVCCNKRLDLVESLKATLNNYEWHGEILRRIIIETTGLANPAPILWTILSDTFLGVHFEIQSVVACVDALNAREHLTNNEAKEQIVFADSVLLTKTDLQNDSAALTKLKERIQALNPSAEIFDKRAIDYESLFSRKNRARNFMPRMPKDSHSQGFETLSINFEGTMEWSAFGIWLSLLLHQYGTQILRIKGIIDIGSGFLVSINGVMHVIYPPKHILKDQNGSNLVFIMRHLEREKILNSLKGFKDFLGIKGFETQLEHHHHHH”, the “soluble on expression in E. coli” value is reported as “soluble”.
With “MSLELEAKLAQANEQIKELSKREERVRIARDLHDTLGHTLSLLTLKSQLIQRLAASDPERTKLEAKEMETSSRSALKQVRELVSDMRTVTITEELVNIQHILRAGNITFQYEGADDFSVISPVTQNIISMCMREAVTNIIKHSKATHCAITISQFADKMRIVIRDDGKGAPKEKMFGNGLWGMEERLMLIEGGLTVSDHNGTVVALTIPLIKKAEEGHHHHHH” the “soluble on expression in E. coli” value was “soluble”.
In the case of “MGSDKIHHHHHHMTVNDKKRLAIIGGGPGGLAAARVFSQSLPNFEIEIFVKDYDIGGVWHYPEQKSDGRVMYDHLETNISKKLMQFSGFPFEENVPLYPSRRNIWEYLKAYYKTFIANKDAISIHFSTEVTYLKKKNSQWEITSKDELRTTKSDFDFVIVASGHYSVPKLPTNIAGLDLWFDNKGAFHSKDFKNCEFAREKVVIVVGNGSSGQDIANQLTTVAKKVYNSIKEPASNQLKAKLIETVQTIDSADWKNRSVTLSDGRVLQNIDYIIFATGYYYSFPFIEPSVRLEVLGEGVTGDKHSSVNLHNLWEHMIYVKDPTLSFILTPQLVIPFPLSELQAAIMVEVFCKSLPITTTFDSNACGTHNFPKERTWNTMQNYRNY”, the “soluble on expression in E. coli” value is reported as “not soluble”.
